# Measurements from publication PMC10438466.
# B1: FOXA1: FOXA13A (protein)
# parent chain: MLGTVKMEGHETSDWNSYYADTQEAYSSVPVSNMNSGLGSMNSMNTYMTMNTMTTSGNMTPASFNMSYANPGLGAGLSPGAVAGMPGGSAGAMNSMTAAGVTAMGTALSPSGMGAMGAQQAASMNGLGPYAAAMNPCMSPMAYAPSNLGRSRAGGGGDAKTFKRSYPHAKPPYSYISLITMAIQQAPSKMLTLSEIYQWIMDLFPYYRQNQQRWQNSIRHSLSFNDCFVKVARSPDKPGKGSYWTLHPDSGNMFENGCYLRRQKRFKCEKQPGAGGGGGSGSGGSGAKGGPESRKDPSGASNPSADSPLHRGVHGKTGQLEGAPAPGPAASPQTLDHSGATATGGASELKTPASSTAPPISSGPGALASVPASHPAHGLAPHESQLHLKGDPHYSFNHPFSINNLMSSSEQQHKLDFKAYEQALQYSPYGSTLPASLPLGSASVTTRSPIEPSALEPAYYQGVYSRPVLNTS
# B2: FOXA1: TMG (protein)
# parent chain: MLGTVKMEGHETSDWNSYYADTQEAYSSVPVSNMNSGLGSMNSMNTYMTMNTMTTSGNMTPASFNMSYANPGLGAGLSPGAVAGMPGGSAGAMNSMTAAGVTAMGTALSPSGMGAMGAQQAASMNGLGPYAAAMNPCMSPMAYAPSNLGRSRAGGGGDAKTFKRSYPHAKPPYSYISLITMAIQQAPSKMLTLSEIYQWIMDLFPYYRQNQQRWQNSIRHSLSFNDCFVKVARSPDKPGKGSYWTLHPDSGNMFENGCYLRRQKRFKCEKQPGAGGGGGSGSGGSGAKGGPESRKDPSGASNPSADSPLHRGVHGKTGQLEGAPAPGPAASPQTLDHSGATATGGASELKTPASSTAPPISSGPGALASVPASHPAHGLAPHESQLHLKGDPHYSFNHPFSINNLMSSSEQQHKLDFKAYEQALQYSPYGSTLPASLPLGSASVTTRSPIEPSALEPAYYQGVYSRPVLNTS
# B3: FOXA1: OSMI-4 (protein)
# parent chain: MLGTVKMEGHETSDWNSYYADTQEAYSSVPVSNMNSGLGSMNSMNTYMTMNTMTTSGNMTPASFNMSYANPGLGAGLSPGAVAGMPGGSAGAMNSMTAAGVTAMGTALSPSGMGAMGAQQAASMNGLGPYAAAMNPCMSPMAYAPSNLGRSRAGGGGDAKTFKRSYPHAKPPYSYISLITMAIQQAPSKMLTLSEIYQWIMDLFPYYRQNQQRWQNSIRHSLSFNDCFVKVARSPDKPGKGSYWTLHPDSGNMFENGCYLRRQKRFKCEKQPGAGGGGGSGSGGSGAKGGPESRKDPSGASNPSADSPLHRGVHGKTGQLEGAPAPGPAASPQTLDHSGATATGGASELKTPASSTAPPISSGPGALASVPASHPAHGLAPHESQLHLKGDPHYSFNHPFSINNLMSSSEQQHKLDFKAYEQALQYSPYGSTLPASLPLGSASVTTRSPIEPSALEPAYYQGVYSRPVLNTS
# How the values were obtained:
# [1] = cycloheximide chase, WB, MCF-7 FOXA1 KO; settings: glycan lost; control: FOXA1WT
# [2] = HA IP, anti-phospho-Ser/Thr WB; settings: glycan lost; control: FOXA1WT, untreated
# HA IP, anti-ubiquitin WB = settings: control: untreated HA-FOXA1WT cells
# [3] = WB of HA-FOXA1 protein level; settings: control: untreated HA-FOXA1WT cells
Protein,degradation_or_half_life [1],other: serine/threonine phosphorylation [2],"other: ubiquitination (HA IP, anti-ubiquitin WB; glycan gained)",expression_or_secretion ([3]; glycan gained),"other: ubiquitination (HA IP, anti-ubiquitin WB; glycan lost)",expression_or_secretion ([3]; glycan lost)
B1,increases,decreases,–,–,–,–
B2,–,–,increases,decreases,–,–
B3,–,decreases,–,–,decreases,increases
